Experiment [1] concerns the target T1, PfRH5 protein variant version 1.0 (7G8 sequence, four N-linked glycosylation sequons mutated Thr to Ala) (Plasmodium falciparum (7G8 …, UniProt Q8IFM5 26-526, C203Y | Thr to Ala in the sequon starting at N38 (position 40 worked out) | Thr …)).
T1 construct: The construct has an N-terminal 18-residue BiP insect signal peptide (…) in place of the native one; No cleavage site for the His6 tag is described; also called PfRH5 v1.0; v1.0
T1 sequence: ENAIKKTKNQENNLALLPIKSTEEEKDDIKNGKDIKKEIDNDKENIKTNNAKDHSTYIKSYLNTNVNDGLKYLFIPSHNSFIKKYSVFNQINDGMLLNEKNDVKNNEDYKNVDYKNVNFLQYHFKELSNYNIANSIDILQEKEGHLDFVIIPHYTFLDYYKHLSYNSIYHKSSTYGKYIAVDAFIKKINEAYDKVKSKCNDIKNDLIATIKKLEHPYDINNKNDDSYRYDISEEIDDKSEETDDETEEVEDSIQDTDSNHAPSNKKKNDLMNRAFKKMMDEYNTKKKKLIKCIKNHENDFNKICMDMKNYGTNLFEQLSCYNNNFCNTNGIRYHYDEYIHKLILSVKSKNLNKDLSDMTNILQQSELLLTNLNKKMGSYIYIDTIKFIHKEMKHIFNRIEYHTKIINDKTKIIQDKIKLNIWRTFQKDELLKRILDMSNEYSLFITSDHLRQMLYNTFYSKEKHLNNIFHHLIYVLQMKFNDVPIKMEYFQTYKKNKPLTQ
In words: SPR; basigin immobilised on a CM5 chip by amine coupling (850 RU); PfRH5 variant injected at 8-0.0625 uM, 120 s at 30 uL/min, 300 s dissociation; 20 C; 10 mM HEPES pH 7.4, 150 mM NaCl, 3 mM EDTA, 0.005% Tween-20, 2 mg/mL dextran, 1 mg/mL salmon sperm DNA; blank surface subtracted; global 1:1 interaction model. As to conditions: both partners purified.

Experiment [2] concerns the target T2, PfRH5 protein variant version 4.0 (3D7 sequence, N38Q and N214Q) (Plasmodium falciparum (3D7 clone), UniProt Q8IFM5 26-526, N38Q | N214Q).
T2 construct: only two of the putative N-linked glycosylation sites mutated (N38Q and N214Q); The construct has an N-terminal BiP insect signal peptide (…); No cleavage site for the His6 tag is described; No evidence of glycosylation was found for this variant; also called PfRH5 v4.0; v4.0; source: without the Con A step
T2 sequence: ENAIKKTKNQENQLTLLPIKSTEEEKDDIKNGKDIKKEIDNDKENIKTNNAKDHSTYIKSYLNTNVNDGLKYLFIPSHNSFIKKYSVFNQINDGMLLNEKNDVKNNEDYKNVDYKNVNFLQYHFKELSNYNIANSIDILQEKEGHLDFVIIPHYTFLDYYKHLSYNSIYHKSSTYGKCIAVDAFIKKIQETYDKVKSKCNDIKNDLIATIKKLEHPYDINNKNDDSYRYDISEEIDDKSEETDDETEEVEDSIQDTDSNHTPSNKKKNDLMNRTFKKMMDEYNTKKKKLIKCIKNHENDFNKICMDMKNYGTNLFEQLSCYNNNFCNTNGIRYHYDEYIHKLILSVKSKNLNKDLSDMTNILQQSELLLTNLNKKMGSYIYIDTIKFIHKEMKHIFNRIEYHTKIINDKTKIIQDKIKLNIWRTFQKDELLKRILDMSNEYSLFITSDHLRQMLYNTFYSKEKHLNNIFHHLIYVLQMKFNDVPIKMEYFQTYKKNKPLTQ
The experiment is described as above. As to conditions: both partners purified.

B1: recombinant basigin, immunoglobulin domains 1 and 2 of the short isoform (22-205) (domain or fragment)
chain: GAAGTVFTTVEDLGSKILLTCSLNDSATEVTGHRWLKGGVVLKEDALPGQKTEFKVDSDDQWGEYSCVFLPEPMGTANIQLHGPPRVKAVKSSEHINEGETAMLVCKSESVPPVTDWAWYKITDSEDKALMNGSESRFFVSSSQGRSELHIENLNMEADPGQYRCNGTSSKGSDQAIITLRVRSH
notes: additional glycine left at the N-terminus from the TEV cleavage site; basigin (CD147), immunoglobulin domains 1 and 2 of the short isoform, residues 22-205; numbers count on: the short isoform; basigin is spoken of as the red blood cell receptor of the human malaria parasite; also called CD147; PfRH5 receptor; not shown: His6, N-terminal, cleaved
On to B1, for which the binding result in experiment [1] and in experiment [2] was “binds” in each case.

(Values after PMC4960544, “Production of full-length soluble Plasmodium falciparum RH5 protein vaccine using a Drosophila melanogaster Schneider 2 stable cell line system” (Scientific Reports, 2016).)
